Experimental data from paper PMC4218953.

Experiments:
[1] = biological target: double-labelled SecYEG(Bpy/Trp) (E. coli) (UniProt P0AGA2)
[2] = biological target: double-labelled SecYEG(Bpy/Trp) (E. coli) (UniProt P0AGA2); remark: listed apart in the source
[3] = biological target: SecYEG translocon embedded in nanodiscs, labelled for FRET titrations (E. coli) (UniProt P0AGA2); assay: FRET or BRET; titration of nanodisc-embedded translocon with vacant ribosomes or Lep75-RNC (Supplementary Fig. 3); FRET between labels in the translocon and the ribosome is told for panel c; buffer A (20 mM HEPES pH 7.5, 70 mM NH4Cl, 30 mM KCl, 7 mM MgCl2, 10% glycerol), 25 °C
[4] = biological target: SecYEG translocon embedded in nanodiscs, labelled for FRET titrations (E. coli) (UniProt P0AGA2); assay: FRET or BRET; titration monitoring FRET between labels in the translocon and the ribosome, at the lower temperature (4 °C)

Chain of DsbA100-RNC (P0AEG4 whole entry, looked up): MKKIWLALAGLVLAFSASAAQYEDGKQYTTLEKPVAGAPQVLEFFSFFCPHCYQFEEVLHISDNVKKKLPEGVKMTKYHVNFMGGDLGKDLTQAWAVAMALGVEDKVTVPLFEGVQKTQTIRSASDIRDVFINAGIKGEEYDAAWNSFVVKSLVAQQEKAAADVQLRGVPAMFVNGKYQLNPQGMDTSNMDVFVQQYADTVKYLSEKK

Substance: DsbA100-RNC (from UniProt P0AEG4 1-208) (complex)
- increase of Bpy fluorescence of nanodisc-embedded SecYEG(Bpy/Trp) (50 nM) on addition of DsbA100-RNC (200 nM), 25 °C [1]: > 20%

Substance: Lep75-RNC (ribosome-nascent-chain complex carrying 75 N-terminal amino acids of leader peptidase) (from UniProt P00803 1-75)
- increase of Bpy fluorescence of nanodisc-embedded SecYEG(Bpy/Trp) (50 nM) on addition of Lep75-RNC (200 nM), 25 °C (loss of PET quenching, lateral gate opening) [2]: 30%
- net increase of Bpy fluorescence of SecYEG(Bpy/Trp) on Lep75-RNC binding, after the change seen with single-labelled SecYEG(Bpy), 25 °C [2]: 25%
- Kd [3]: 10 nM

Substance: TolB100-RNC (from UniProt P0A855 1-430) (complex)
- increase of Bpy fluorescence of nanodisc-embedded SecYEG(Bpy/Trp) (50 nM) on addition of TolB100-RNC (200 nM), 25 °C [1]: > 20%

Substance: vacant 70S ribosomes from E. coli MRE600 (complex)
- increase of Bpy fluorescence of nanodisc-embedded SecYEG(Bpy/Trp) (50 nM) on addition of vacant 70S ribosomes (200 nM), 25 °C (loss of PET quenching, lateral gate opening) [2]: 15%
- increase of Bpy fluorescence of SecYEG(Bpy/Trp) solubilised with detergent (0.03% DDM, no nanodisc) on addition of non-translating ribosomes, 25 °C [1]: 15%
- Kd [4]: 10 nM
- Kd [3]: 20 nM
